Measurements: US20240116985A1 (published 2024)
Starred links: 1 amine or outer side, 2 acyl side, 3 side chain; linkers in the order of their positions; H or OH if unused. Positions of bridges follow the written chain, without caps; N, C: chain ends. Non-standard residues stand in square brackets, D forms with d. Primed or numbered codes have the meaning given here. *: point of attachment. PyrS2″ = (S)-3-amino-1-((pent-4-en-1-yloxy)carbonyl)pyrrolidine-3-carboxylic acid (stapling residue), C=CCCCOC(=O)N1CC[C@@](N[*:1])(C(=O)[*:2])C1; B5(18) = 2,2-bis(4-pentenyl)glycine (2-amino-2-(pent-4-en-1-yl)hept-6-enoic acid), stitching residue, C=CCCCC(CCCC=C)(N[*:1])C(=O)[*:2]; B5(24) = 2-amino-2-(pent-4-en-1-yl)hept-6-enoic acid, 2,2-bis(4-pentenyl)glycine (stitching residue), C=CCCCC(CCCC=C)(N[*:1])C(=O)[*:2]; B5(4) = 2,2-bis(4-pentenyl)glycine = 2-amino-2-(pent-4-en-1-yl)hept-6-enoic acid (stitching residue), C=CCCCC(CCCC=C)(N[*:1])C(=O)[*:2]; TfeGA = (S)-2-amino-3-((carboxymethyl)(2,2,2-trifluoroethyl)amino)propanoic acid, O=C([C@H](CN(CC(=O)[*:3])CC(F)(F)F)N[*:1])[*:2]; B5(3) = 2,2-bis(4-pentenyl)glycine (stitching residue), C=CCCCC(CCCC=C)(N[*:1])C(=O)[*:2]; Phe(3-CF3) = N[C@@H](Cc1cccc(C(F)(F)F)c1)C(=O)O; Phe(3-OMe) = COc1cccc(C[C@H](N)C(=O)O)c1; Phe(2-Cl) = N[C@@H](Cc1ccccc1Cl)C(=O)O; 2Nal = N[C@@H](Cc1ccc2ccccc2c1)C(=O)O; Bta = N[C@@H](Cc1csc2ccccc12)C(=O)O; Lys(iPr) = CC(C)NCCCC[C@H](N)C(=O)O; αAllylPro = C=CC[C@@]1(C(=O)O)CCCN1; tBuAla = CC(C)(C)C[C@H](N)C(=O)O; Cha = N[C@@H](CC1CCCCC1)C(=O)O; Thr(ol) = C[C@@H](O)[C@H](N)CO; Alaol = C[C@@H](CO)N*

T1: B-cat-Halo (UniProt P35222 1-781)
T1 sequence (looked up): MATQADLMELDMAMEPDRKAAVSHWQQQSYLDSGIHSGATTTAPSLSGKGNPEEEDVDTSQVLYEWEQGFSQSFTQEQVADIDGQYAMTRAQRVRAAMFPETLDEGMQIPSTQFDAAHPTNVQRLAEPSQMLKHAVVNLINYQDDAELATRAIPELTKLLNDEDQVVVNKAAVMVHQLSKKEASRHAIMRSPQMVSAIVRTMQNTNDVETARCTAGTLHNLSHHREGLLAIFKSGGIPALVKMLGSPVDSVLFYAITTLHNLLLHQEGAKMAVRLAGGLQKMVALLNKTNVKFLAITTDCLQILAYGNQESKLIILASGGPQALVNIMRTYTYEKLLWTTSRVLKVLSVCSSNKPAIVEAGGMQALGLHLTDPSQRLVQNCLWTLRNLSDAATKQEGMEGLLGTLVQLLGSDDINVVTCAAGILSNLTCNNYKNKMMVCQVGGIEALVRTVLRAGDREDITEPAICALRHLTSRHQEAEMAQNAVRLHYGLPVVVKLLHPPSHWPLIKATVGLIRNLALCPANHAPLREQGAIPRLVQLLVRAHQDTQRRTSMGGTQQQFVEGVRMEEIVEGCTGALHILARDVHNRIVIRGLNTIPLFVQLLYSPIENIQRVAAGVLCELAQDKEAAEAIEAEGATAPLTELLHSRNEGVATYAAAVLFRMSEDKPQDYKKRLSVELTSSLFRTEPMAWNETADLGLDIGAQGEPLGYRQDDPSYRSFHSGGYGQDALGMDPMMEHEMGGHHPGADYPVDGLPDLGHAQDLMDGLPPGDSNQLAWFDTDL

T2: B-cat-Halo (UniProt P35222 1-781)
T2 sequence (looked up): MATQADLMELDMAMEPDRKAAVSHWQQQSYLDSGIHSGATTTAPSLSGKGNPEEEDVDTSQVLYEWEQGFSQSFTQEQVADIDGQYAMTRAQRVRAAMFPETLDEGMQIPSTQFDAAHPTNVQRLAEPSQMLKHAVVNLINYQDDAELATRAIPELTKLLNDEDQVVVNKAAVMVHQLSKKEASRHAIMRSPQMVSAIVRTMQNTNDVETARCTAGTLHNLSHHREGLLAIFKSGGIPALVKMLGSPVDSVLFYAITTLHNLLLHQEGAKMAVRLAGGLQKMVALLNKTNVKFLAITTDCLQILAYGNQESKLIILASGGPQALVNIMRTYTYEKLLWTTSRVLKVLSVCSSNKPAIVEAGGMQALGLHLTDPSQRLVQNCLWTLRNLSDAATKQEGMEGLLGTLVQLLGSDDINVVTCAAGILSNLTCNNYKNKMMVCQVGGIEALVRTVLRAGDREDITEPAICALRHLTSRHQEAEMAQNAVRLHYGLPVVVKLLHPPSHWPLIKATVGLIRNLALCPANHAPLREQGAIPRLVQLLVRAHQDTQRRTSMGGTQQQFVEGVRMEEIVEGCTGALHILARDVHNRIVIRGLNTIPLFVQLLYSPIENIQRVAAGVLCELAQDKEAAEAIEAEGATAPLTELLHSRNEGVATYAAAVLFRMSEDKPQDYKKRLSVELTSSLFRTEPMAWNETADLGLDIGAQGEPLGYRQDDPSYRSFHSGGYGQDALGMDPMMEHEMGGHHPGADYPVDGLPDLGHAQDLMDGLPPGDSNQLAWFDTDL

T3: B-cat-Halo (beta-catenin HaloTag NanoBRET construct expressed in HEK293 cells) (Homo sapiens (Human), UniProt P35222 1-781)
T3 sequence: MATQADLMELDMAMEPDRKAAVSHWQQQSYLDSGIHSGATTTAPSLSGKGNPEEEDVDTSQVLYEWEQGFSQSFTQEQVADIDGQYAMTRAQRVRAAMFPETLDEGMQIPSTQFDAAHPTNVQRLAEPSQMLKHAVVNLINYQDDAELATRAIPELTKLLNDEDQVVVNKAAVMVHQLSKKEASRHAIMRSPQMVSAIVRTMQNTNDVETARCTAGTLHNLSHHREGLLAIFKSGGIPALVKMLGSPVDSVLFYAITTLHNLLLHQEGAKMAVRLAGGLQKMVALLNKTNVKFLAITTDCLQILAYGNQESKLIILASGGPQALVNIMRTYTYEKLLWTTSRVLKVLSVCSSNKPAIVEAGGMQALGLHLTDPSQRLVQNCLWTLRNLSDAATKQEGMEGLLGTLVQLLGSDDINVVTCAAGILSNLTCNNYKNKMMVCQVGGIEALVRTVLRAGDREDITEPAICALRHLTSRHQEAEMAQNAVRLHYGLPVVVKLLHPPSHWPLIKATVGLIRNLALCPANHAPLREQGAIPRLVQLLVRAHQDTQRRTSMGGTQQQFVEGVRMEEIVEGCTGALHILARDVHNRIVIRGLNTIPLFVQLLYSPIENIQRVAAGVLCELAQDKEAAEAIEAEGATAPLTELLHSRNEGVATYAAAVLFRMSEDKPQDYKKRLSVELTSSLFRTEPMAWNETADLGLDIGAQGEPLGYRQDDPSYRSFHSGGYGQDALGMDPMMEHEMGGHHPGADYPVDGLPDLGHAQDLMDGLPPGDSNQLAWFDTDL


Key:
Assay in all cases: cell-based or functional assay
B-cat-Halo [1] = target: T1, B-cat-Halo
B-cat-Halo [2] = target: T2, B-cat-Halo; remark: listed apart in the source
[3] = target: T3, B-cat-Halo (beta-catenin HaloTag …)

| NanoBRET Abs IC50 (B-cat-Halo [1]) [µM] | NanoBRET Abs IC50 (B-cat-Halo [2]) [µM] | Binder | further results |
| --- | --- | --- | --- |
| > 20 | – | Ac-[αAllylPro]D[tBuAla][B5(24)]DDA[Lys(iPr)]FN[PyrS2″][Phe(2-Cl)][Bta]Q-NH2 (staple 1-4, 4-11) [I-1132] | – |
| 18.8 | – | Ac-[αAllylPro]D[tBuAla][B5(24)]DD[Lys(iPr)]AFN[PyrS2″][Phe(2-Cl)][Bta]Q-NH2 (staple 1-4, 4-11) [I-1131] | – |
| – | 14.3 | Ac-[αAllylPro]D[tBuAla][B5(18)]DNAAFT[PyrS2″][Phe(2-Cl)][Bta]Q-NH2 (staple 1-4, 4-11) [I-1014] | – |
| 7.6 | – | Ac-[αAllylPro]D[tBuAla][B5(24)]DDAAFN[PyrS2″][Phe(2-Cl)][Bta][Lys(iPr)]-NH2 (staple 1-4, 4-11) [I-1130] | – |
| – | – | Ac-[αAllylPro]D[tBuAla][B5(4)]DDAAFL[PyrS2″][Phe(2-Cl)][Bta]Q-NHEt (staple 1-4, 4-11) [I-1248] | NanoBRET Abs IC50 [3]: 29.7 µM |
| 26.8 | – | Ac-[αAllylPro]D[Cha][B5(3)]DDAAFS[PyrS2″]F[Bta]Q-NH2 (staple 1-4, 4-11 (inferred); not fully specified (residue 9); printed as Ac-PL3-Asp-Cha-B5-Asp-Asp-Ala-Ala-4F3MeF-Ser-PyrS2-Phe-BztA-Gln-NH2) [I-1126] | – |
| > 20 | – | Ac-[αAllylPro]D[Cha][B5(3)]DDAA[Phe(3-OMe)]S[PyrS2″]F[Bta]Q-NH2 (staple 1-4, 4-11 (inferred)) [I-1124] | – |
| – | 8.9 | Ac-[αAllylPro]D[tBuAla][B5(18)]DDAAFS[PyrS2″][Phe(2-Cl)][Bta]Q-NH2 (staple 1-4, 4-11) [I-1017] | – |
| – | 29.8 | Ac-[αAllylPro]D[tBuAla][B5(18)]D[TfeGA]ALFN[PyrS2″][Phe(2-Cl)][Bta]Q-NH2 (staple 1-4, 4-11) [I-1002] | – |
| 24.3 | – | Ac-[αAllylPro]D[2Nal][B5(3)]DDAAFT[PyrS2″][2C1F][Bta]S-NH2 (staple 1-4, 4-11) [I-1115] | – |
| 19.4 | – | Ac-[αAllylPro]D[Cha][B5(3)]DDAA[Phe(3-CF3)]S[PyrS2″][Phe(2-Cl)][Bta]Q-NH2 (staple 1-4, 4-11 (inferred)) [I-1119] | – |
| 5.4 | – | Ac-[αAllylPro]D[tBuAla][B5(3)]DDAA[Phe(3-OMe)]L[PyrS2″]F[Bta]Q-NH2 (staple 1-4, 4-11 (inferred)) [I-1127] | – |
| – | 13.3 | Ac-[αAllylPro]D[tBuAla][B5(18)]D[TfeGA]IAFN[PyrS2″][Phe(2-Cl)][Bta]Q-NH2 (staple 1-4, 4-11) [I-1010] | – |
| – | 25.8 | Ac-[αAllylPro]D[tBuAla][B5(18)]DNAAFS[PyrS2″][Phe(2-Cl)][Bta]Q-NH2 (staple 1-4, 4-11) [I-1018] | – |
| – | – | Ac-[αAllylPro]D[tBuAla][B5(4)]DDAAFL[PyrS2″][Phe(2-Cl)][Bta][Thr(ol)] (staple 1-4, 4-11) [I-1249] | NanoBRET Abs IC50 [3]: 25.2 µM |
| – | – | Ac-[αAllylPro]D[tBuAla][B5(4)]DDAAFL[PyrS2″][Phe(2-Cl)][Bta]-Alaol (staple 1-4, 4-11) [I-1250] | NanoBRET Abs IC50 [3]: > 20 µM |
